Test results as given in patent publication US20230406933A1 (RANDOX LABORATORIES, published 2023).

Assays:
[1] = target: PD-L1 on the cell surface in the Promega PD1/PD-L1 Blockade Bioassay (Cat# J1250); experiment: cell-based or functional assay
[2] = target: T1, PDL1 coated in the commercial PD1:PDL1 inhibition assay (Acro Biosystems Cat# EP-101) (Homo sapiens (Human), UniProt Q9NZQ7 19-238); experiment: Acro Biosystems PD1:PDL1 inhibition assay; PDL1 coated, biotinylated PD1 as competitor; reference Avelumab
T1 construct: Kit reagent; construct not described

B1: humanised 32.1A1 clone (VHH)
VHH: QVQLVESGGGLVQPGGSLRLSCAASGRTFREYGMGWFRQAPGKGLEWVATISSSGSYSYYADSVKGRFTISRDNSKNTLYLQMNSLRAEDTAVYYCAASSLLRGSSSRAESYDSWGQGTLVTVSS
notes: CDRs of 32.1A1 grafted into a model human VH3 framework; Expressed from pScreen, purified by IMAC, detected with anti-Myc HRP; also called hum-32.1A1; hum32.1A1
In the case of B1, the “EC50 of luciferase activity fold change, Promega PD-1/PD-L1 blockade bioassay, panel GS542” value [1] is reported as 0.165 µg/mL and the “amount of blocking relative to Avelumab” value [2] is reported as 10 fold.
